Among the data in patent US20030059769, “High affinity nucleic acid ligands to lectins” (published 2003) are Kd and IC50 values, retold here.

Substitutions are numbered along the chain they refer to.

Data set [1] has as its target T1, soluble L-selectin (Homo sapiens, UniProt P14151 P14151:39-332).
T1 sequence: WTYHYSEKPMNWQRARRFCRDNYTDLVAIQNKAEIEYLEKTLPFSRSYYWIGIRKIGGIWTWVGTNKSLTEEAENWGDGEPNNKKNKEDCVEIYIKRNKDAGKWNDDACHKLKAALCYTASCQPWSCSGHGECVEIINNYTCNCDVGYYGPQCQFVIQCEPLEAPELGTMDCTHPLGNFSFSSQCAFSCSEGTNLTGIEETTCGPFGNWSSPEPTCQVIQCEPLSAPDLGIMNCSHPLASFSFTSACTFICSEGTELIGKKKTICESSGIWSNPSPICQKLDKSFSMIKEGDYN
The data set is described as follows: filter; 37 C. The conditions noted are these: tags: R&D Systems. As to the method:
(§1) Unless otherwise indicated, all materials used in the 2′-F RNA SELEX against the L-selectin/IgG2 chimera, LS-Rg, were identical to those of Examples 7, paragraph A and 13, paragraph A. SHMCK-140 buffer, used for all SELEX and binding experiments, was 1 mM CaCl₂, 1 mM MgCC₂, 140 mM NaCl, 5 mM KCl. and 20 mM HEPES, pH 7.4. A soluble form of L-selectin, corresponding to the extracellular domains, was purchased from R&D Systems and used for some nitrocellulose filter binding experiments.
(§2) As described in SELEX Patent Applications, a nitrocellulose filter partitioning method was used to determine the affinity of RNA ligands for LS-Rg and for other proteins. Filter discs (nitrocellulose/cellulose acetate mixed matrix, 0.45 μm pore size, Millipore) were placed on a vacuum manifold and washed with 3 ml of SHMCK 140 buffer under vacuum. Reaction mixtures, containing ³²P labeled RNA pools and unlabeled LS-Rg, were incubated in SHMCK 140 for 10-20 min at 37° C., and then immediately washed with 3 ml SHMCK 140. The filters were air-dried and counted in a Beckman LS6500 liquid scintillation counter without fluor. Alternatively, binding studies employed 96 well micro-titer manifolds essentially as described in Example 13, paragraph E.
(§3) These calculations assume two ligand binding sites per chimera.

The target in data set [2] is P-selectin (PS-Rg) (Homo sapiens, UniProt P16109 P16109:42-321). The data set is described as follows: filter; HSMC, 37 C. The conditions noted are these: tags: human IgG Fc fusion; chain copies: 2 (stated dimer).
P-selectin (PS-Rg), sequence (P16109 42-321, one chain of several): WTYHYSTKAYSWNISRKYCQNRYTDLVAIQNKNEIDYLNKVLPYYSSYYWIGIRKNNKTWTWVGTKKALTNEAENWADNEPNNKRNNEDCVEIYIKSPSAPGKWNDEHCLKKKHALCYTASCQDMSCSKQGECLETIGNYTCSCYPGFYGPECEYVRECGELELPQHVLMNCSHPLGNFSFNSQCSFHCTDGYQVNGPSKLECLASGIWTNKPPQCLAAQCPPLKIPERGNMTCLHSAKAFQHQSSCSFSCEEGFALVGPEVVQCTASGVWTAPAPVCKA
The target of data set [3] is T2, L-selectin (LS-Rg) (Homo sapiens, UniProt P14151 P14151:39-332).
T2 sequence: T1 sequence
The experiment in a line: filter; 37 C. Particulars: tags: human IgG2 Fc fusion. As to the method:
as §1, §2, §3

For data set [4], the target named is T3, L-selectin on PBMC / lymphocytes (Homo sapiens, UniProt P14151 P14151:39-372).
T3 sequence: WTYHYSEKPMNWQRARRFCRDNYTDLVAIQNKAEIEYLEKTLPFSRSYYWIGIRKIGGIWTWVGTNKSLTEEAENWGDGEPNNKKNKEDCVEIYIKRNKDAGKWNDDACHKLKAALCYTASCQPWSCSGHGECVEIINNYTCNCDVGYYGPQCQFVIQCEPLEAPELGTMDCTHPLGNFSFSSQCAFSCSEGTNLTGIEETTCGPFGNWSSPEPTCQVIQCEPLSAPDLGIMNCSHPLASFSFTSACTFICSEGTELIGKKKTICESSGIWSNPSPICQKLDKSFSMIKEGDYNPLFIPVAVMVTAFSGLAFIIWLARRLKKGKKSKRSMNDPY
The data set is described as follows: flow; competition with FITC-LD201T1. As for the experimental part: Binding of evolved ligands to L-selectin presented in the context of a cell surface was tested by flow cytometry experiments with human lymphocytes. Briefly, peripheral blood mononuclear cells (PBMC) were purified on histoplaque by standard techniques. […] Fluorescent staining of cells was quantified on a FACSCaliber fluorescent activated cell sorter (Becton Dickinson, San Jose, Calif.). The affinity of the 2′-F competitor was calculated from the flurorescence inhibition curves.
The ability of full length 2′-F ligands to bind to L-selectin presented in the context of a cell surface was tested by competition-flow cytometry experiments with human peripheral blood lymphocytes.

Data set [5] deals with T4, Wheat germ agglutinin (WGA) (Triticum vulgare, UniProt P10968 P10968:27-197).
T4 sequence: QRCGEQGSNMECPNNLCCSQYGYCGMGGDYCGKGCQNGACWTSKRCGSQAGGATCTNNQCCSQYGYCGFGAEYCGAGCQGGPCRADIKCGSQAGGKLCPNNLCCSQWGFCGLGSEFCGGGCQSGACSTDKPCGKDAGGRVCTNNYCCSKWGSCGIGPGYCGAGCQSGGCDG
The data set is described as follows: filter; HBSS, room temperature. Particulars: tags: E Y Laboratories. As for the experimental part: As described in SEIEX patent applications, a nitrocellulose filter partitioning method was used to determine the affinity of RNA ligands for WGA and for other proteins. Filter discs (nitrocellulose/cellulose acetate mixed matrix, 0.45 μm pore size, Millipore; or pure nitrocellulose, 0.45 μm pore size, Bio-Rad) were placed on a vacuum manifold and washed with 4 ml of HBSS buffer under vacuum. Reaction mixtures, containing ³²P labeled RNA pools and unlabeled WGA, were incubated in HBSS for 10 min at room temperature, filtered, and then imnmediately washed with 4 ml HBSS. The filters were air-dried and counted in a Beckman LS6500 liquid scintillation counter without fluor.
The dissociation constants for representative members of families 1-9 and orphan ligands were determined by nitrocellulose filter binding experiments and are listed in Table 3. These calculations assume one RNA ligand binding site per WGA monomer.

The target of data set [6] is T2, L-selectin (LS-Rg). The experiment in a line: inhibition; sialyl-LewisX competition ELISA. Particulars: tags: human IgG2 Fc fusion; chain copies: 2 (stated dimer). As for the experimental part:
SLe^X-BSA (Oxford GlycoSystems, Oxford, UK) in 1X PBS, without CaCl₂, and MgCl₂, (GIBCO/BRL) was immobilized at 100 ng/well onto a microtiter plate by overnight incubation at […]. The wells were blocked for 1 h with the assay buffer consisting of 20 mM HEPES, 111 mM NaCl, 1 mM CaCl₂, 1 mM MgCl₂, 5 mM KCl, 8.9 mM NaOH, final pH 8, and 1% globulin-free BSA (Sigma). The reaction mixtures, incubated for 90 min with orbital shaking, contained 5 nM L-Selectin-Rg, a 1:100 dilution of anti-human IgG-peroxidase conjugate (Sigma), and 0 - 50 ruM of competitor in assay buffer. After incubation, the plate was washed with BSA-free assay buffer to remove unbound chimera-antibody complex and incubated for 25 min with O-phenylenediamine dihydrochloride peroxidase substrate (Sigma) by shaking in the dark at 22°0 C. Absorbance was read at 450 nm on a Bio-Kinetics Reader, Model EL312e (Bio-Tek Instruments, Laguna Hills, Calif.). Values shown represent the mean ±s.e from duplicate, or triplicate, samples from one representative experiment.
Sialyl Lewis^X is the minimal carbohydrate ligand bound by selecting.

The mark [7] stands for this setting: chain copies: homodimer, label: 32P.
[8] abbreviates: chain copies: 2 (stated homodimer).

B1: LF1521 (ssRNA)
RNA: GAGGACGAUGCGGGCUCUUAAGCAACGUGUUAUCAAGUUAGCCCAGACGACUCGCCCGA
modifications: 2'-F C and U
By Kd is commonly meant the equilibrium constant for the complex coming apart. A high value points to a looser complex. The molecule B1 came in with a Kd in data set [1] of 0.25 nM. This counts as sub-nanomolar.

B2: PF387 (ssRNA)
RNA: GGGAGACAAGAAUAAACGCUCAACGCACCAGGAACAACGAGAACCAUCAGUAAACGCGAGCGAUUGCAUGUUCGACAGGAGGCUCACAACAGGC
modifications: 2'-F C and U
The molecule B2 came in with an equilibrium dissociation constant (Kd) in data set [2] of 0.016 nM.

B3: LF1808 (ssRNA)
RNA: GGGAGGACGAUGCGGCAUGGUCUUAGGCGACGCGUUUAUAUCGAGUCACCAUGCUCAGACGACUCGCCCGA
modifications: 2'-F C and U
In the case of B3, the affinity in data set [3] (chain copies: 2 (stated dimer)), expressed as Kd, was 0.6 nM. In other words, the sub-nanomolar range.

B4: PF398 (ssRNA)
RNA: GGGAGACAAGAAUAAACGCUCAACGAACCACGGGGAAAUCCACCAGUAACACGCGAGGCAAACAGACCCUCUUCGACAGGAGGCUCACAACAGGC
modifications: 2'-F C and U
For B4, the dissociation constant Kd in data set [2] was determined as 0.046 nM. This counts as picomolar.

B5: LF1513 (ssRNA)
RNA: GGGAGGACGAUGCGGGCUCUUCAGCAACGUGUUAUCAAGUUAGCCCAGACGACUCGCCCGA
modifications: 2'-F C and U
In data set [4], B5 gave an equilibrium dissociation constant (Kd) of 4 nM.

B6: LF1613 (ssRNA)
RNA: GGGAGGACGAUGCGGUGCUAUUCUUAAGCGGCGUGUUUUUCAAGCCAAUAUCAUCAGACGACUCGCCCGA
modifications: 2'-F C and U
Take B6: the Kd in data set [4] amounted to 0.2 nM.

B7: LF1614 (ssRNA)
RNA: GGGAGGACGAUGCGGCAAACAAGCUCAAAUGACGUGUUUUUCAAGUCCUUGUUGUCAGACGACUCGCCCGA
modifications: 2'-F C and U
Consider B7, for which the equilibrium dissociation constant (Kd) in data set [3] (chain copies: 2 (stated dimer)) worked out at 0.17 nM.

B8: LF1815 (ssRNA)
RNA: GGGAGGACGAUGCGGCCAUCGGUCUUGGGCAACGCGUUUUCGAGUUACCUAUGGUCAGACGACUCGCCCGA
modifications: 2'-F C and U
Turning to B8, in data set [1], the dissociation constant Kd was determined as 0.18 nM.

B9: LF1536 (ssRNA)
RNA: GGGAAGACGAUGCGGCGCUCAAAUAAUGCGUUAAUCGAAUUCGCCCAGACGACUCGCCCGA
modifications: 2'-F C and U
With B9, in data set [1], the Kd was 0.22 nM. The Kd values of the last two molecules are within 1.5-fold of each other.

B10: PF386 (ssRNA)
RNA: GGGAGACAAGAAUAAACGCUCAAACAAGAGAGUCAAACCAAGUGAGAUCAGAGCGUUUAGCGCGGAAAGCACAUUCGACAGGAGGCUCACAACAGGC
modifications: 2'-F C and U
On to B10, for which binding in data set [2] was put at a Kd of 0.0455 nM.

B11: WGA ligand 6.9 (ssRNA)
RNA: GGGAAAAGCGAAUCAUACACAAGACUCGGCGGGAACGAAGUGUGUGAGUAACGAUCACUUGGUACUAAAAGCCCGCUCCGCCAGAGACCAACCGAGAA
modifications: 2'-NH2 on all C and U
In data set [5] (setting [7]), B11 showed a Kd of 396 nM. This counts as sub-micromolar.

B12: PF404 (ssRNA)
RNA: GGGAGACAAGAAUAAACGCUCAAUCAGCAGUAAGCGAUCCUAUAAAGAUCAACUAGCCAAAGAUGACUUAUUCGACAGGAGGCUCACAACAGGC
modifications: 2'-F C and U
In the case of B12, the Kd in data set [2] is 0.0475 nM.

B13: WGA ligand 11.6 (ssRNA)
RNA: GGGAAAAGCGAAUCAUACACAAGACUGGGGAGCAGGAUAUGAGAUGUGCGGGGCAAUGGAGUCGUGACGAACCGCUCCGCCAGAGACCAACCGAGAA
modifications: 2'-NH2 on all C and U
With B13, in data set [5] (setting [7]), the Kd was 702 nM.

B14: LF1618 (ssRNA)
RNA: GGGAGGACGAUGCGGUUAGCCUACACUCUAGGUUCAGUUUUCGAAUCUUCCACCGCAGACGACUCGCCCGA
modifications: 2'-F C and U [all C and U 2'-F; W in the 3' fixed region (cagacgacucgcccga) = A]
In data set [4], B14 displayed a dissociation constant Kd of 25 nM.

B15: WGA ligand 6.23 (ssRNA)
RNA: GGGAAAAGCGAAUCAUACACAAGACUCGGCGGGAAUCGAAAGUGUACUGAAUUAGAACGGUGGGCCUGCUCAUCGUGCUCCGCCAGAGACCAACCGAGAA
modifications: 2'-NH2 C and U
As for B15, binding in data set [5] (setting [8]) was characterised by a dissociation constant (Kd) of 824 nM.

B16: LF1712 (ssRNA)
RNA: GGGAGGACGAUGCGGGAUCUUAAGCAGUGCGUUAUUCGAACUAUCCCAGACGACUCGCCCGA
modifications: 2'-F C and U
Turning to B16, the affinity in data set [1], expressed as Kd, was 0.065 nM.

B17: WGA ligand 6.5 (ssRNA)
RNA: GGGAAAAGCGAAUCAUACACAAGAGUCCCUAGGGAUGCAACGGGCAGCAUUCGCAUAGGAGUAAUCGGAGGUCGCUCCGCCAGAGACCAACCGAGAA
modifications: 2'-NH2 C and U
B17 came in with a dissociation constant Kd in data set [5] (setting [8]) of 678 nM.

B18: LF1527 (ssRNA)
RNA: GGGAGGACGAUGCGGACCCUCAAAUAGCGUGCAUUUCAAGCUGGUCAGACGACUCGCCCGA
modifications: 2'-F C and U
In turn, B18 registered a Kd in data set [3] (chain copies: 2 (stated dimer)) of 0.32 nM.

B19: LF1529 (ssRNA)
RNA: B18 RNA with G27A, C32U, A33C, C41U
modifications: 2'-F C and U
Take B19: in data set [3] (chain copies: 2 (stated dimer)), the affinity, expressed as Kd, was 0.6 nM. Against the preceding molecule, the Kd is about 1.9-fold higher.
What is called IC50 is the midpoint of a concentration-inhibition curve. In data set [6], AGCTGGCGGTACGGGCCGTGCACCCACTTACCTGGGAAGTGAGCTTA (ssDNA) [LD196T1] yielded an IC50 of approximately 3 nM.
For the molecule TAGCCATTCACCATGGCCCCTTCCTACGTATGTTCTGCGGGTGGCTTA (ssDNA) [LD174T1], the IC50 in data set [6] was approximately 3 nM.

B20: LF1514 (ssRNA)
RNA: GGGAGGACGAUGCGGUACCUCAAAUUGCGUGUUUUCAAGCAGUAUCAGACGACUCGCCCGA
modifications: 2'-F C and U
For B20, the Kd in data set [4] amounted to 0.8 nM.

B21: LF1708 (ssRNA)
RNA: GGGAGGACGAUGCGGAUCUUAAGCAGCGCGUCAAUCGAGCUAACCCAGACGACUCGCCCGAG
modifications: 2'-F on all C and U
With B21, the Kd in data set [3] (chain copies: dimer, label: 32P) came out at 70 nM.
